Target: SARS-CoV-2 S glycoprotein, full length, expressed at the surface of ExpiCHO cells (SARS-CoV-2 (isolate BetaCoV/Wuhan-Hu-1/2019)) (UniProt P0DTC2)

Substance | neutralization of SARS-CoV-2-MLV pseudovirus (transduction), IC50 | neutralization of SARS-CoV-2-MLV pseudovirus, plateau of neutralization | neutralization of SARS-CoV-2-MLV pseudovirus, maximal neutralization
S309 Fab fragment | 3.8 nM | 80% | –
S309 full-length IgG1 (rIgG-LS) (antibody) | 3.5 nM | – | 100%

Reference: publication doi:10.1101/2020.04.07.023903
